Assays:
Type in all cases: cell-based, human
U266B1 target cells = experiment: Cytotoxicity assay with luciferase-expressing target cells and ACTR T-cells
Experimental: (§1) T-cells expressing ACTR variant SEQ ID NO: 1 (effector; E) and target cells (target; T) were incubated at a 4:1, effector-to-target ratio (120,000 T cells; 30,000 target cells) with increasing concentrations of various chimeric anti-BCMA antibodies (FIG. 3, parts A and B), humanized anti-BCMA antibody clones (FIG. 5, parts A and B), or anti-BCMA antibodies derived from the NCI-murine BCMA CAR sequence shown in WO2010104949A2 (FIG. 6, parts A and B) in a 200-μL reaction volume with RPMI 1640 media supplemented with 10% fetal bovine serum. The chimeric and humanized antibodies analyzed included fucosylated and afucosylated (labeled as “SEA”) versions of the SG16.17 and SG16.45 anti-BCMA antibodies. Reactions were incubated in a CO2 (5%) incubator at 37 degrees C. for 24 or 48 hours. An equal volume of Bright-Glo luciferase assay reagent (Promega; Madison, Wis.) was added prior to a 10 minute room temperature incubation. Luminescence was measured using an EnVision Multi-label plate reader (PerkinElmer; Waltham, Mass.). The percentage of live cells was determined by dividing the luminescence signal of a given sample by the luminescence signal in the absence of antibody and multiplying by 100. The percent cytotoxicity was determined by subtracting the percentage of live cells from 100. The percentage of antibody specific cytotoxicity (%) was then plotted as a function of antibody concentration.
(§2) In FIG. 8, T-cells expressing ACTR variant SEQ ID NO: 1 (effector; E) and target cells (target; T) were incubated at a 4:1, effector-to-target ratio (120,000 T cells; 30,000 target cells) with increasing concentrations of humanized afucosylated (SEA) anti-BCMA antibody SG16.17 in a 200-μL reaction volume in RPMI 1640 media supplemented with 10% fetal bovine serum. Target-cell luminescence was measured and percent cytotoxicity was determined as in Example 3.
(§3) T-cells (effector; E) and target cells (target; T) were incubated at varying effector-to-target (E:T) cell ratios in the presence of 10 μg/mL anti-BCMA antibody (FIG. 13), in a 200-μL reaction volume in RPMI 1640 media supplemented with 10% fetal bovine serum. The antibodies included fucosylated and afucosylated (SEA) versions of the two anti-BCMA antibodies (SG16.17 and SG16.45). […] Target cell luminescence was measured and percent cytotoxicity was determined as in Example 3.
(§4) In FIG. 18, T-cells (effector; E) and target cells (target; T) were incubated at a 4:1, effector-to-target ratio (30,000 target cells) with increasing concentration of humanized afucosylated anti-BCMA antibody hSG16.17SEA in a 200-μL reaction volume in RPMI 1640 media supplemented with 10% fetal bovine serum. […] Target cell luminescence was measured and percent cytotoxicity was determined as described in Example 3.

NCI-H929 target cells [1] = experiment: as above
Experimental: as §1, §2, §3, §4

NCI-H929 target cells [2] = experiment: Activation markers (CD25, CD69) on ACTR T-cells by flow cytometry; details: ACTR variant SEQ ID NO: 1, E:T 1:1, 1 μg/mL antibody, 24 hours
Experimental: T-cells (effector; E) and target cells (target; T) were incubated at a 1:1, effector-to-target ratio (30,000 T cells; 30,000 target cells) with 1 μg/mL of anti-BCMA antibodies in a 200-μL reaction volume in RPMI 1640 media supplemented with 10% fetal bovine serum. Reactions were incubated in a CO2 (5%) incubator at 37 degrees C. for 24 hours. Geometric Mean Fluorescence intensity (gMFI) of two activation markers, CD25 and CD69 were determined in the total CD3+ CD16+ ACTR T-cell gate via flow cytometry. Briefly, cells were washed twice in staining buffer before being stained with a Live/Dead eFluor-450 dye for 30 min at 4 degrees C. After incubating in the live/dead cell stain, cells were washed twice and incubated with 100 μL of an antibody cocktail consisting of AF488-conjugated anti-human CD3 antibody, APC-conjugated anti-human CD16 antibody, PerCP-Cy5.5-conjugated anti-human CD25 antibody, and BV510-conjugated anti-human CD69 antibody. Subsequently, cells were washed twice, fixed, permeabilized, and stained for intracellular molecules prior to detection via flow cytometry. […]
T-cells (effector; E) and NCI-H929 target cells (target; T) were incubated at varying effector-to-target ratios in the presence of 1 μg/mL hSG16.17 SEA antibody. […] The geometric mean fluorescence intensity of CD25 was calculated within the CD3+ T-cell gate and was plotted as a function of E:T ratio (FIG. 17).

[3] = T-cells expressing ACTR variant SEQ ID NO: 1, E:T 4:1, increasing antibody concentrations, 24 or 48 hours

B1: cSG16.45SEA: afucosylated (SEA) version of the chimeric SG16.45 anti-BCMA antibody (antibody, V domains shown)
VH: EVQLVESGGGLVQPGRSLKLSCVASGFTFNDHWMTWIRQAPGRGLEWISSITNTGGATYYLDSVKGRFTISRDNAKSTLYLQMNSLRSEDTATYYCTSPGLYFDYWGQGVMVTVSS
VL: EIVLTQSPTTTAASPGEKVTITCLATSSVSVMYWYQHKSGASPKLLIYSTSSLASGVPDRFSGSGSGTSYSLTINTMEAEDAATYYCHQWSSDPPTFGSGTKLEIKR
U266B1 target cells; T-cells expressing ACTR variant SEQ ID NO: 1, 10 μg/mL anti-BCMA antibody, 48 hours
  cytotoxicity at varying E:T ratios: increased potency in comparison to the fucosylated antibodies
U266B1 target cells; [3]
  antibody specific cytotoxicity: increased cytotoxicity when compared with the fucosylated antibodies
NCI-H929 target cells [1]; T-cells expressing ACTR variant SEQ ID NO: 1, 10 μg/mL anti-BCMA antibody, 24 hours
  cytotoxicity at varying E:T ratios: increased potency in comparison to the fucosylated antibodies
NCI-H929 target cells [1]; [3]
  antibody specific cytotoxicity: increased cytotoxicity when compared with the fucosylated antibodies
NCI-H929 target cells [2]
  levels of activation markers CD25 and CD69 (gMFI) on ACTR T-cells: enhanced expression of CD25 and CD69 when compared to incubations with their fucosylated counterparts
